Tests used:
[1] = molecular target: pGal4-AD-p53-1 (p53 clone 1 from the mouse embryonic cDNA library, fused to Gal4-AD) (mouse) (UniProt P02340); assay: yeast two-hybrid, quantitative liquid β-galactosidase assay
[2] = molecular target: pGal4-AD-p53-2 (p53 clone 2 from the mouse embryonic cDNA library, fused to Gal4-AD) (mouse) (UniProt P02340); assay: as above
[3] = molecular target: pGal4-AD-SV40 (control plasmid, SV40 protein fused to Gal4-AD) (UniProt P03070); assay: yeast two-hybrid, quantitative liquid β-galactosidase assay (positive control pair)
Sequence of UniProt P03070 (P03070 84-708): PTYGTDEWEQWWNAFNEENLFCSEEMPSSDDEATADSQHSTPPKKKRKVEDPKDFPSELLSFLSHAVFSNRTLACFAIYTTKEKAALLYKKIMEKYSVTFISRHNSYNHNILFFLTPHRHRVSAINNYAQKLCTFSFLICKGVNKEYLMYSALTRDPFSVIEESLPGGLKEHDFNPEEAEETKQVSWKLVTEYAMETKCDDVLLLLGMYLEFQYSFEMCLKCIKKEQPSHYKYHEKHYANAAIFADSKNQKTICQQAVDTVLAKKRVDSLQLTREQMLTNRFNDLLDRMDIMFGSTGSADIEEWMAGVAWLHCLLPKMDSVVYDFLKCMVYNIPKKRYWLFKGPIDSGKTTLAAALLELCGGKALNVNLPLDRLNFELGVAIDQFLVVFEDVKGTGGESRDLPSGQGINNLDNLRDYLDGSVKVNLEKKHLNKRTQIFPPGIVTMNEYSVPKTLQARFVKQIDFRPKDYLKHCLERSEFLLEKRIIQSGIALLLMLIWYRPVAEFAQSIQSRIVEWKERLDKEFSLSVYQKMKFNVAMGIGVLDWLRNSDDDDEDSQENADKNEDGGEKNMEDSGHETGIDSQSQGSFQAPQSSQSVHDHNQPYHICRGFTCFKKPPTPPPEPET

pGal4-BD-p40 bait fusion protein comprised of the Gal4 binding domain and a p40 protein (from UniProt P04386 1-147)
β-galactosidase [1]: 33.6 nmol/min/mg
β-galactosidase [2]: 31.8 nmol/min/mg

pGal4-BD-p53 (control plasmid, p53 fused to the Gal4 binding domain) (from UniProt P04386 1-147)
β-galactosidase [3]: 65.3 nmol/min/mg
